± gives the uncertainty stated by the source.
Experiment: self-splicing fitness, log relative to wild type (ln ratio); higher = more splicing; Tetrahymena group I intron in knt gene, E. coli kanamycin selection, DiMSum; sequences stand for … in CUCUCU…GGAGGGAAAAGUUAUCAGGCAUGCACCUGGUAGCUAGUCUUUAAACCAAUAGAUUGCAUCGGUUUAAAAGGCAAGACCGUCAAAUUGCGGGAAAGGGGUCAACAGCCGUUCAGUACCAAGUCUCAGGGGAAACUUUGAGAUGGCCUUGCAAAGGGUAUGGUAAUAAGCUGACGGACAUGGUCCUAACCACGCAGCCAAGUCCUAAGUCAACAGAUCUUCUGUUGAUAUGGAUGCAGUUCACAGACUAAAUGUCGGUCGGGGAAGAUGUAUUCUUCUCAUAAGAUAUAGUCGGACCUCUCCUUAAUGGGAGCUAGCGGAUGAAGUGAUGCAACACUGGAGCCGCUGGGAACUAAUUUGUAUGCGAAAGUAUAUUGAUUAGUUUUGGAGUACUCGUGGUCG
In short: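 DiMSum derived fitness as the error-weighted combination of fold changes across replicates, kanamycin versus no kanamycin, normalised to wild type. E. coli BL21(DE3) held the library, which randomised all eight P1ex-region intron nucleotides within the knt kanamycin-resistance gene on pET-22b(+). Six replicate transformations grew overnight at 37°C or 30°C on LB agar with or without 25 μg/mL kanamycin, also containing 100 μg/mL carbenicillin, 50 μM IPTG and 0.2% rhamnose, and pooled colonies were amplicon-sequenced on an Illumina HiSeq 2500.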

Sequence	self-splicing fitness (ln) (30 °C)	self-splicing fitness (ln) (37 °C)
CUUUAGCAAUAUUACGCUUG	-2.98 ± 0.16	-2.32 ± 0.17
CUCAAGCAAUAUUACGUUGC	-4.05 ± 0.29	-2.39 ± 0.21
UCCAAGCAAUAUUACGUAUG	-4.08 ± 0.19	-2.36 ± 0.2
UGUAAGCAAUAUUACGGAAG	-1.91 ± 0.13	-2.38 ± 0.21
UAAUAGCAAUAUUACGUUGA	-2.67 ± 0.2	-2.54 ± 0.18
UCAAAGCAAUAUUACGAUAU	-3.62 ± 0.23	-2.67 ± 0.18
CCUCAGCAAUAUUACGAACU	-2.63 ± 0.37	-1.64 ± 0.38
GACCAGCAAUAUUACGUGCA	-0.378 ± 0.07	-0.122 ± 0.086
AUGCAGCAAUAUUACGGCGG	-1.76 ± 0.068	-0.59 ± 0.081
AGAGAGCAAUAUUACGGCGU	-2.48 ± 0.19	-2.7 ± 0.25
AUGCAGCAAUAUUACGUUUU	-2.8 ± 0.1	-1.65 ± 0.099
UAUAAGCAAUAUUACGGGGC	-2.29 ± 0.45	–
UCAAAGCAAUAUUACGCUUA	-2.87 ± 0.14	-2.53 ± 0.17
CUAAAGCAAUAUUACGUAUC	-3.77 ± 0.18	-2.22 ± 0.22
UGGUAGCAAUAUUACGAACC	-2.54 ± 0.29	-1.93 ± 0.28
CGAAAGCAAUAUUACGUCGC	-3.03 ± 0.21	-2.59 ± 0.23
AGCAAGCAAUAUUACGAUUU	-0.00633 ± 0.054	0.677 ± 0.08
CAUCAGCAAUAUUACGAUAC	-2.95 ± 0.16	-1.75 ± 0.16
ACCCAGCAAUAUUACGCGAA	-1.26 ± 0.068	-0.703 ± 0.078
CUGAAGCAAUAUUACGAAGU	-3.58 ± 0.2	-2.77 ± 0.41
CUGUAGCAAUAUUACGCCGU	–	-2.96 ± 0.4

Sequence	self-splicing fitness (ln) (30 °C)	self-splicing fitness (ln) (37 °C)
CAUCAGCAAUAUUACGUGUG	-2.72 ± 0.092	-1.38 ± 0.08
GAGAAGCAAUAUUACGCCAC	–	-0.779 ± 0.37
UUUGAGCAAUAUUACGGCAA	-1.72 ± 0.18	-0.742 ± 0.22
GGAUAGCAAUAUUACGACAC	-0.106 ± 0.11	0.407 ± 0.14
UGUCAGCAAUAUUACGUCGA	-0.404 ± 0.073	-0.0273 ± 0.085
UCACAGCAAUAUUACGGCUG	-3.35 ± 0.16	-2.96 ± 0.23
GUUGAGCAAUAUUACGGGAU	-3.14 ± 0.15	-1.96 ± 0.15
GGCCAGCAAUAUUACGCAAG	-3.48 ± 0.25	-3.15 ± 0.43
AAUCAGCAAUAUUACGAAGC	-0.428 ± 0.11	-0.998 ± 0.14
AAAUAGCAAUAUUACGCCGG	-1.6 ± 0.13	-0.713 ± 0.15
UACCAGCAAUAUUACGACAC	-2.34 ± 0.13	-1.16 ± 0.15
CUCCAGCAAUAUUACGCCCU	-3.46 ± 0.34	-2 ± 0.26
GGUCAGCAAUAUUACGAGUG	-2.56 ± 0.1	-1.44 ± 0.11
CAGGAGCAAUAUUACGCUUU	-3.59 ± 0.22	-1.81 ± 0.17
UUGAAGCAAUAUUACGACUA	0.321 ± 0.098	0.141 ± 0.11
CCAGAGCAAUAUUACGUGUG	-1.69 ± 0.091	-1.54 ± 0.097
GCGCAGCAAUAUUACGAGUU	-0.986 ± 0.066	-0.241 ± 0.1
AGUCAGCAAUAUUACGUAAA	-1.71 ± 0.12	-0.231 ± 0.11
GUAGAGCAAUAUUACGUAUC	-2.44 ± 0.12	-1.58 ± 0.13
AAACAGCAAUAUUACGAACC	-2.56 ± 0.18	-0.124 ± 0.17
GUGCAGCAAUAUUACGUUCA	0.191 ± 0.072	-0.181 ± 0.081

Sequence	self-splicing fitness (ln) (30 °C)	self-splicing fitness (ln) (37 °C)
CAAAAGCAAUAUUACGAGUC	-4.06 ± 0.24	-2.65 ± 0.25
CGGAAGCAAUAUUACGUAGC	-2.64 ± 0.38	-3.47 ± 0.46
AUUCAGCAAUAUUACGGACA	-0.904 ± 0.078	-0.744 ± 0.095
UUGAAGCAAUAUUACGGCGC	-2.04 ± 0.17	-0.68 ± 0.19
GGUCAGCAAUAUUACGGGUC	-1.54 ± 0.13	-1.58 ± 0.16
ACCCAGCAAUAUUACGAGAG	-2.16 ± 0.086	-0.789 ± 0.09
GCCUAGCAAUAUUACGAUGU	-0.317 ± 0.081	0.35 ± 0.12
UAGCAGCAAUAUUACGGUUG	-1.17 ± 0.092	-0.442 ± 0.12
AACGAGCAAUAUUACGCUGA	-1.64 ± 0.27	-2.29 ± 0.39
AAUCAGCAAUAUUACGCUUG	-0.11 ± 0.068	-0.33 ± 0.084
GCGUAGCAAUAUUACGCGAC	-2.5 ± 0.11	-1.42 ± 0.12
GGGUAGCAAUAUUACGGGGG	-2.97 ± 0.24	-2.09 ± 0.25
AAGCAGCAAUAUUACGUAGU	-2.61 ± 0.1	-2.47 ± 0.14
AGGUAGCAAUAUUACGUCAA	-2.28 ± 0.023	-1.6 ± 0.036
UCACAGCAAUAUUACGGGGA	-1.15 ± 0.065	0.015 ± 0.076
AAGGAGCAAUAUUACGUGCU	–	-2.92 ± 0.47
CGGGAGCAAUAUUACGGUGU	-3.71 ± 0.24	-2.48 ± 0.25
CUAAAGCAAUAUUACGUAAA	-2.81 ± 0.14	-3.36 ± 0.26
AGCAAGCAAUAUUACGGAUA	-3.3 ± 0.28	-1.77 ± 0.19

Reference: the supplement of paper PMC7877785
